Test results taken from patent publication US10759836B2, “Cancer vaccine compositions and methods of use thereof” (UNIVERSITY OF WASHINGTON, priority 2014, dated 2020).
“Also recorded” adds a separate entry of the source.

B1: VCP: peptide vaccine of VCP #18, #19, #20, #23, 50 ug per peptide with CFA/IFA (peptide)
chain 1: IRMNRVVRNNLRVRLGDVISI
chain 2: LQLFRGDTVLLKGKKRR
chain 3: YFLEAYRPIRKGDIFLVRG
chain 4: VEFKVVETDPSPYCIVAPDT
modifications: with CFA/IFA adjuvant
notes: peptide vaccine of VCP #18, #19, #20, #23, 50 ug per peptide with CFA/IFA
B2: RCAS1: peptide vaccine of RCAS1 #13, #14, #21, #30, #31, 50 ug per peptide with CFA/IFA (peptide)
chain 1: EPDYFKDMTPTIRKTQKIVI
chain 2: DYFKDMTPTIRKTQKIVIKKR
chain 3: LFKFCTCLATVFSFLKRLIC
chain 4: GFSSRLAATQDLPFIHQSSELGD
chain 5: EEEDAAWQAEEVLRQQKLADR
modifications: with CFA/IFA adjuvant
notes: peptide vaccine of RCAS1 #13, #14, #21, #30, #31, 50 ug per peptide with CFA/IFA
B3: PRL3: peptide vaccine of PRL-3 #1, #2, #3, #4, #29, 50 ug per peptide with CFA/IFA (peptide)
chain 1: VSYKHMRFLITHNPTNATL
chain 2: FIEDLKKYGATTVVRVCEVTY
chain 3: PCVAGLGRAPVLVALALIES
chain 4: MKYEDAIQFIRQKRRGAIN
chain 5: VEDWLSLVKAKFCEA
modifications: with CFA/IFA adjuvant
notes: peptide vaccine of PRL-3 #1, #2, #3, #4, #29, 50 ug per peptide with CFA/IFA

Tests used:
[1] = tested on: small bowel tumor burden in APCmin mice; test: APCmin mouse model: small bowel tumor count after peptide vaccination; assay type: in vivo; details: for effect on small bowel tumor burden (tumor count): APCmin mice, vs CFA/IFA control, 50 ug per peptide s.c.; for peptide efficacy, APCmin Small Bowel (Spontaneous): summary table, Yes/No
Procedure: (§1) Offspring from APCmin were genotyped by PCR for the presence of the Min mutation using primers as follows: Wild-Type: 5′-[…]-3′ (SEQ ID NO: 46), Common 5′-[…]-3′ (SEQ ID NO: 47), Mutant: 5′-[…]-3′ (SEQ ID NO: 48). Both male and female mice testing positive for the Min mutation were included in the study and randomized into groups.
(§2) At 4-6 weeks of age, mice were immunized in CFA/IFA, PBS, and vaccine groups. Each group received subcutaneous injections (100 ul PBS, 50 ul CFA with 50 ul PBS, 50 ug per peptide with 50 ul CFA) once every 7-10 days for a total of three doses and one booster was given 4-5 weeks after the third vaccine. See Table 5 for peptides included in vaccine compositions. CFA was replaced with IFA after the first vaccine. All mice were sacrificed at 14 to 17 weeks of age, the gastrointestinal tracts were collected and tumors counted.

[2] = tested on: colon tumor burden in APCmin mice; test: APCmin mouse model: colon tumor count after peptide vaccination; assay type: in vivo; details: for effect on colon tumor burden (tumor count): APCmin mice, vs CFA/IFA control, 50 ug per peptide s.c.; for peptide efficacy, APCmin Colon (Spontaneous): summary table, Yes/No
Procedure: as §1, §2

[3] = tested on: colon tumor burden in AOM mice (Azoxymethane + FVB); test: AOM mouse model: colon tumor count after peptide vaccination; assay type: in vivo; details: for effect on colon tumor burden (tumor count): AOM treated FVB mice, vs control group (CFA/IFA; PBS for IGF1R, PRL3, RCAS1); for peptide efficacy, Azoxymethane + FVB (Induced): summary table, Yes/No
Procedure: AOM mouse in-vivo experiments. At 6 weeks of age, FVB mice were immunized in CFA/IFA, PBS, and vaccine groups. Each group received subcutaneous injections (100 ul PBS, 50 ul CFA with 50 ul PBS, 50 ug per peptide with 50 ul CFA) once every 10-14 days for a total of three doses and a booster was given every 4-5 weeks after the third vaccine. See Table 7 for peptides included in vaccine compositions. CFA was replaced with IFA after the first vaccine. Seven days after the third vaccine, mice were injected with Azoxymethane (AOM) at 10 mg/kg, twice weekly for 6 weeks. At 26 weeks of age, all mice were sacrificed and tumors in the colon were counted.

[4] = tested on: MC-38 cells (murine adenocarcinoma); test: MC-38 tumor implant model: tumor volume after peptide vaccination; assay type: in vivo, C57Bl/6 mice; details: for effect on tumor volume: MC-38 tumor implant in C57Bl/6 mice, vs CFA/IFA; for peptide efficacy, MC-38 + B6 (Tumor Implant): summary table, Yes/No
Procedure: MC-38 tumor implant in-vivo experiments. At 6 weeks of age, mice were immunized in CFA/IFA, PBS, and vaccine groups. Each group received subcutaneous injections (100 ul PBS, 50 ul CFA with 50 ul PBS, 50 ug per peptide with 50 ul CFA) once every 10-14 days for a total of three doses. See Table 9 for peptides included in vaccine compositions. CFA was replaced with IFA for the second and third vaccines. Two weeks after the final vaccine, we subcutaneously implanted 4×10^4 MC-38 cells (murine adenocarcinoma), and measured tumor growth with Vernier calipers 2-3 times per week. Tumor volume was calculated as length×width×height×π/6, which is the standard volume calculation of an ellipsoid. Mice were sacrificed when tumor size in control mice reached greater than 1000 mm^3.

[5] = tested on: small bowel tumor burden in APCmin mice; test: APCmin survival study: small bowel tumor count at sacrifice; assay type: in vivo; details: boosters every 4-5 weeks, vs CFA/IFA
Procedure: At 4-6 weeks of age, mice were immunized with CFA/IFA, PBS, and vaccine groups. Each group received subcutaneous injections (100 ul PBS, 50 ul CFA with 50 ul PBS, 50 ug per peptide with 50 ul CFA) once every 7-10 days for a total of three doses and a booster vaccine was given every 4-5 weeks after the third vaccine. See Table 6 for peptides included in vaccine compositions. CFA was replaced with IFA after the first vaccine. […] At sacrifice, small intestines were collected and small bowel tumors counted.

Row | Molecule | effect on small bowel tumor burden (tumor count) [1] | peptide efficacy, APCmin Small Bowel (Spontaneous) [1] | effect on colon tumor burden (tumor count) [2] | peptide efficacy, APCmin Colon (Spontaneous) [2] | effect on colon tumor burden (tumor count) [3] | peptide efficacy, Azoxymethane + FVB (Induced) [3] | effect on tumor volume [4] | peptide efficacy, MC-38 + B6 (Tumor Implant) [4] | effect on small bowel tumor burden (tumor count) [5]
1 | B1 | vaccine efficacy; also recorded: significantly inhibits | Yes | vaccine efficacy; also recorded: significantly inhibits | Yes | lack of VCP vaccine efficacy; also recorded: does not significantly inhibit | No | does not significantly inhibit | No | 
2 | B2 | vaccine efficacy; also recorded: significantly inhibits | Yes | lack of RCAS1 vaccine efficacy; also recorded: does not significantly inhibit | No | lack of RCAS1 vaccine efficacy; also recorded: do not significantly inhibit | No | significantly inhibits | Yes | 
3 | B3 | vaccine efficacy; also recorded: significantly inhibits | Yes | lack of PRL3 vaccine efficacy; also recorded: does not significantly inhibit | No | lack of PRL3 vaccine efficacy; also recorded: does not significantly inhibit | No | significantly inhibits | Yes | does not significantly inhibit
